Legend:
Type in all cases: biochemical
[1] = HTP-analysis of yeast culture supernatants, no challenge (MUGal hydrolysis); details: activity of the variant/activity of Rd3BB (SEQ ID NO: 13)
Summary of the method: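 GLA variants were expressed in INVSc1 yeast grown in SD-Ura broth with glucose at 30° C., and culture supernatants were collected after 66-84 h. Supernatant was mixed with McIlvaine buffer pH 4.8 and MUGal (2 mM stock) in 50 mM citrate, 200 mM KCl, pH 4.6, incubated at 37° C. for 30-180 minutes, then quenched with sodium carbonate.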

[2] = HTP-analysis of supernatants pretreated with acid (MUGal hydrolysis); details: activity of the variant/activity of Rd3BB (SEQ ID NO: 13); challenge at pH 3.7
Summary of the method: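 Yeast INVSc1 supernatant, GLA variants; acid challenge: McIlvaine pH 3.3-4.3, 37° C., 1-3 h. Assay: MUGal in McIlvaine pH 4.8 plus citrate pH 4.3, 37° C., 30-180 min, Na2CO3 stop, Ex 355/Em 448 nm.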

[3] = HTP-analysis of supernatants pretreated with base (MUGal hydrolysis); details: activity of the variant/activity of Rd3BB (SEQ ID NO: 13); challenge at pH 9.7
Summary of the method: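 Supernatants from INVSc1 yeast expressing GLA variants (SD-Ura, 66-84 h, 30° C) were mixed with McIlvaine buffer pH 7.0-8.2 or 200 mM sodium bicarbonate pH 9.1-9.7 and held 1-18 h at 37° C. Residual activity was then measured on MUGal at pH 4.8/4.3, 37° C, 30-180 min, by fluorescence (Ex 355/Em 448 nm).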

B1: 588 (protein)
chain: LDNGLARTPTMGWLHWERFMCNLDCQEEPDSCISEKLFMEMAERMVSEGWKDAGYEYLCIDDCWMAPQRDSEGRLQADPQRFPHGIRQLANHVHSAGLKLGIYADVGNKTCAGFPGSFGYYDIDAQTFADWGVDLLKFDGCYCDSLENLADGYKHMSLALNRTGRSIVYSCEWPLYMWPFQKPNYTEIRQYCNHWRNFADIDDSWASIKSILDWTSRNQERIVDVAGPGGWNDPDMLVIGNFGLSWDQQVTQMALWAIMAAPLFMSNDLRHISPQAKALLQDKDVIAINQDPLGKQGYQLRKGDNFEVWERPLSGDAWAVAIINRQEIGGPRSYTIPVASLGKGVACNPACFITQLLPVKRQLGFYNWTSRLKSHINPTGTVLLQLENTMQMSLKDLL
modifications: Synthetic Polypeptide sequence of Variant No. 588 of mature Human GLA
Relative Activity of GLA Variants After No Challenge (NC) [1]: + (+ = 1.5 to 5 relative activity over Rd3BB (SEQ ID NO: 13)) | Relative Activity of GLA Variants After Challenge at pH 3.7 [2]: + (+ = 1.5 to 5 relative activity over Rd3BB (SEQ ID NO: 13)) | Relative Activity of GLA Variants After Challenge at pH 9.7 [3]: + (+ = 1.5 to 5 relative activity over Rd3BB (SEQ ID NO: 13))

B2: 590 (protein)
chain: LDNGLARTPTMGWLHWERFMCNLDCQEEPDSCISEKLFMEMAERMVSEGWKDAGYEYLCIDDCWMAPQRDSEGRLQADPQRFPHGIRQLANHVHSKGLKLGIYADVGNKTCAGFPGSFGYYDIDAQTFADWGVDLLKFDGCYCDSLENLADGYKHMSLALNRTGRSIVYSCEWPLYMWMFQKPNYTEIRQYCNHWRNFADIDDSWASIKSILDWTSRNQERIVDVAGPGGWNDPDMLVIGNFGLSWDQQVTQMALWAIMAAPLFMSNDLRHISPQAKALLQDKDVIAINQDPLGKQGYQLRKGDNFEVWERPLSGDAWAVAIINRQEIGGPRSYTIPVASLGKGVACNPACFITQLLPVKRQLGFYNWTSRLKSHINPTGTVLLQLENTMQMSLKDLL
modifications: Synthetic Polypeptide sequence of Variant No. 590 of mature Human GLA
Relative Activity of GLA Variants After No Challenge (NC) [1]: + (+ = 1.5 to 5 relative activity over Rd3BB (SEQ ID NO: 13)) | Relative Activity of GLA Variants After Challenge at pH 3.7 [2]: + (+ = 1.5 to 5 relative activity over Rd3BB (SEQ ID NO: 13)) | Relative Activity of GLA Variants After Challenge at pH 9.7 [3]: + (+ = 1.5 to 5 relative activity over Rd3BB (SEQ ID NO: 13))

B3: 589 (protein)
chain: LDNGLARTPTMGWLHWERFMCNLDCQEEPDSCISEKLFMEMAERMVSEGWKDAGYEYLCIDDCWMAPQRDSEGRLQADPQRFPHGIRQLANHVHSWGLKLGIYADVGNKTCAGFPGSFGYYDIDAQTFADWGVDLLKFDGCYCDSLENLADGYKHMSLALNRTGRSIVYSCEWPLYMWPFQKPNYTEIRQYCNHWRNFADIDDSWASIKSILDWTSRNQERIVDVAGPGGWNDPDMLVIGNFGLSWDQQVTQMALWAIMAAPLFMSNDLRHISPQAKALLQDKDVIAINQDPLGKQGYQLRKGDNFEVWERPLSGDAWAVAIINRQEIGGPRSYTIPVASLGKGVACNPACFITQLLPVKRQLGFYNWTSRLKSHINPTGTVLLQLENTMQMSLKDLL
modifications: Synthetic Polypeptide sequence of Variant No. 589 of mature Human GLA
Relative Activity of GLA Variants After No Challenge (NC) [1]: + (+ = 1.5 to 5 relative activity over Rd3BB (SEQ ID NO: 13)) | Relative Activity of GLA Variants After Challenge at pH 3.7 [2]: + (+ = 1.5 to 5 relative activity over Rd3BB (SEQ ID NO: 13)) | Relative Activity of GLA Variants After Challenge at pH 9.7 [3]: + (+ = 1.5 to 5 relative activity over Rd3BB (SEQ ID NO: 13))

From US11278600B2, “Human alpha-galactosidase variants” (Codexis, Inc., priority 2014, dated 2022)
